The text below walks through data of US20080260748A1.

In this assay the target is desmocollin 2 (DSC2) (human) (UniProt Q02487). The experiment in a line: flow cytometry on NCI-H358 cells, control human IgG. For orientation: Flow cytometry measures light scatter and fluorescence of single cells or particles in a stream.

B1: anti-DSC2 human antibody 332 (antibody, V domains shown)
VH: QVQLQQWGAGLLKPSETLSLTCAVYGGSFSGNYWSWIRQPPGKGLEWIGEINHSGNTKYNPSLKSRVAISADTSKNQFSLKLSSVTAADTAVYYCARVPFDWFHPPGEPPFYYYYGMDVWGQGTTVTVSS
VL: HVILTQPPSVSGAPGQRVTISCTGSSSNIGAGYDVHWYQQLPGTAPKLLIYGNSNRPSGVPDRFSGSKSGTSASLAITGLQAEDEADYYCQSYDSSLSGWVFGGGTKLTVPG
In the case of B1, the MFI (ratio of intensity to control IgG) came out at 9.48.
